In publication PMC5766580, “Each protomer of a dimeric YidC functions as a single membrane insertase” (Scientific Reports, 2018):

Target: the molecule itself
Experiment: native gel or EMSA; Blue Native PAGE of inner membrane vesicles from a cell lysate, Western blot

B1: cysteine-less YidC (YidC0), monomeric construct (natural protein, E. coli, UniProt P25714 1-548, looked up)
chain: MDSQRNLLVIALLFVSFMIWQAWEQDKNPQPQAQQTTQTTTTAAGSAADQGVPASGQGKLISVKTDVLDLTINTRGGDVEQALLPAYPKELNSTQPFQLLETSPQFIYQAQSGLTGRDGPDNPANGPRPLYNVEKDAYVLAEGQNELQVPMTYTDAAGNTFTKTFVLKRGDYAVNVNYNVQNAGEKPLEISSFGQLKQSITLPPHLDTGSSNFALHTFRGAAYSTPDEKYEKYKFDTIADNENLNISSKGGWVAMLQQYFATAWIPHNDGTNNFYTANLGNGIAAIGYKSQPVLVQPGQTGAMNSTLWVGPEIQDKMAAVAPHLDLTVDYGWLWFISQPLFKLLKWIHSFVGNWGFSIIIITFIVRGIMYPLTKAQYTSMAKMRMLQPKIQAMRERLGDDKQRISQEMMALYKAEKVNPLGGSFPLLIQMPIFLALYYMLMGSVELRQAPFALWIHDLSAQDPYYILPILMGVTMFFIQKMSPTTVTDPMQQKIMTFMPVIFTVFFLWFPSGLVLYYIVSNLVTIIQQQLIYRGLEKRGLHSREKKKS
notes: membrane insertase YidC of E. coli, the plasmid-encoded yidC gene; cysteine 423 replaced by serine; Copies 2 is the dimeric form seen on Blue Native PAGE. 'Full length' rests on the words 'the yidC gene'; also called YidC-C0; monomeric YidC0; source: E. coli MK6, from plasmid pGZ119-YidC0, in inner membrane vesicles from a cell lysate
stoichiometry N: 2
